The text below walks through data of publication PMC12102759 (2025).

Sequences and labels used below:
B1: NOTCH4 peptide 1606-1621 (Neurogenic locus notch homolog protein 4), 16-mer library wild type / NSP9 (ORF1ab Nsp9, residues 4141-4253) (parent complex)
chain 1: QGAWLGAPEPWEPLLD
chain 2: NNELSPVALRQMSCAAGTTQTACTDDNALAYYNTTKGGRFVLALLSDLQDLKWARFPKSDGTGTIYTELEPPCRFVTDTPKGPKVKYLYFIKGLNNLNRGMVLGSLAATVRLQ

This assay covers variants of B1. Briefly: bait immobilised on MaxiSorp plates (10 µg), library pre-cleared on GST, 2 h binding at 4 °C, five washes; one round per day, days 1-4; value from days 2 and 3.
As to chain 1 QGAWFGAPEPWEPLLD [chain 1 L5F], the screen value was 0.000119 average fractional NGS count over selection days 2 and 3 (reads of this peptide / all reads for the bait, averaged over ….

Take chain 1 QGAWLGAPEPWIPLLD [chain 1 E12I]: the screen value was 0.000686 average fractional NGS count over selection days 2 and 3 (reads of this peptide / all reads for the bait, averaged over …. Next, chain 1 QGAWLGAPEPWSPLLD [chain 1 E12S]: 0.00302 average fractional NGS count over selection days 2 and 3 (reads of this peptide / all reads for the bait, averaged over …. Regarding chain 1 QGAWLGAPEPWKPLLD [chain 1 E12K], the screen value is 0.00114 average fractional NGS count over selection days 2 and 3 (reads of this peptide / all reads for the bait, averaged over ….

Regarding chain 1 QGAWLGAPEPWVPLLD [chain 1 E12V], the screen value is 0.00994 average fractional NGS count over selection days 2 and 3 (reads of this peptide / all reads for the bait, averaged over ….

As to chain 1 QGAWLGAPEPWDPLLD [chain 1 E12D], the screen value was 0.000215 average fractional NGS count over selection days 2 and 3 (reads of this peptide / all reads for the bait, averaged over …. Consider chain 1 QGAWLGAPEPWNPLLD [chain 1 E12N], for which the screen value is 0.00209 average fractional NGS count over selection days 2 and 3 (reads of this peptide / all reads for the bait, averaged over …. Next, chain 1 QGAWLGAPEPWMPLLD [chain 1 E12M]: 0.00442 average fractional NGS count over selection days 2 and 3 (reads of this peptide / all reads for the bait, averaged over …; chain 1 QGAWLGAPEPWPPLLD [chain 1 E12P]: 0.00101 average fractional NGS count over selection days 2 and 3 (reads of this peptide / all reads for the bait, averaged over …. Turning to chain 1 FGAWLGAPEPWEPLLD [chain 1 Q1F], the screen value was 0.000338 average fractional NGS count over selection days 2 and 3 (reads of this peptide / all reads for the bait, averaged over ….

In the case of chain 1 DGAWLGAPEPWEPLLD [chain 1 Q1D], the screen value is 0.000709 average fractional NGS count over selection days 2 and 3 (reads of this peptide / all reads for the bait, averaged over ….

In the case of chain 1 MGAWLGAPEPWEPLLD [chain 1 Q1M], the screen value was 0.00503 average fractional NGS count over selection days 2 and 3 (reads of this peptide / all reads for the bait, averaged over …. Regarding chain 1 WGAWLGAPEPWEPLLD [chain 1 Q1W], the screen value is 0.000692 average fractional NGS count over selection days 2 and 3 (reads of this peptide / all reads for the bait, averaged over …. Regarding chain 1 NGAWLGAPEPWEPLLD [chain 1 Q1N], the screen value is 0.00294 average fractional NGS count over selection days 2 and 3 (reads of this peptide / all reads for the bait, averaged over …. Turning to chain 1 QGAWLGAPEPWEPPLD [chain 1 L14P], the screen value is 0.000127 average fractional NGS count over selection days 2 and 3 (reads of this peptide / all reads for the bait, averaged over ….

For the variant chain 1 QGAWLGAPEPWEPRLD [chain 1 L14R], the screen value was 0.000211 average fractional NGS count over selection days 2 and 3 (reads of this peptide / all reads for the bait, averaged over …. Regarding chain 1 QGAWLGAPEPWEPFLD [chain 1 L14F], the screen value was 0.00284 average fractional NGS count over selection days 2 and 3 (reads of this peptide / all reads for the bait, averaged over …. With chain 1 QGAWLGAPEPWEPWLD [chain 1 L14W], the screen value is 0.000273 average fractional NGS count over selection days 2 and 3 (reads of this peptide / all reads for the bait, averaged over …. With chain 1 QGAWLGAPEPWEPHLD [chain 1 L14H], the screen value is 0.000429 average fractional NGS count over selection days 2 and 3 (reads of this peptide / all reads for the bait, averaged over …. For chain 1 QGAWLGAPEPWEPKLD [chain 1 L14K], the screen value was 0.00411 average fractional NGS count over selection days 2 and 3 (reads of this peptide / all reads for the bait, averaged over …. Consider chain 1 QGAWLGAPEPWETLLD [chain 1 P13T], for which the screen value was 0.000368 average fractional NGS count over selection days 2 and 3 (reads of this peptide / all reads for the bait, averaged over ….

As for chain 1 QGAWLGAPEPWERLLD [chain 1 P13R], the screen value was 0.00106 average fractional NGS count over selection days 2 and 3 (reads of this peptide / all reads for the bait, averaged over …. For the variant chain 1 QGAWLGAPEPWEFLLD [chain 1 P13F], the screen value is 0.0013 average fractional NGS count over selection days 2 and 3 (reads of this peptide / all reads for the bait, averaged over …. Under chain 1 QGAWLGAPEPWENLLD [chain 1 P13N] stands 0.000298 average fractional NGS count over selection days 2 and 3 (reads of this peptide / all reads for the bait, averaged over …; under chain 1 QGAWLGAPEPWESLLD [chain 1 P13S], 0.000244 average fractional NGS count over selection days 2 and 3 (reads of this peptide / all reads for the bait, averaged over …. chain 1 QGAWLGAPEPWEDLLD [chain 1 P13D]: the screen value is 0.00132 average fractional NGS count over selection days 2 and 3 (reads of this peptide / all reads for the bait, averaged over …. On to chain 1 QGAWLGAPEPWEMLLD [chain 1 P13M], for which the screen value was 0.00222 average fractional NGS count over selection days 2 and 3 (reads of this peptide / all reads for the bait, averaged over …. In the case of chain 1 QGAWLGAREPWEPLLD [chain 1 P8R], the screen value was 8.2e-05 average fractional NGS count over selection days 2 and 3 (reads of this peptide / all reads for the bait, averaged over …. Under chain 1 QGAWLGANEPWEPLLD [chain 1 P8N] stands 0.000215 average fractional NGS count over selection days 2 and 3 (reads of this peptide / all reads for the bait, averaged over …; under chain 1 QGAWLGAHEPWEPLLD [chain 1 P8H], 0.00106 average fractional NGS count over selection days 2 and 3 (reads of this peptide / all reads for the bait, averaged over …; under chain 1 QGAWLGADEPWEPLLD [chain 1 P8D], 0.000161 average fractional NGS count over selection days 2 and 3 (reads of this peptide / all reads for the bait, averaged over …. chain 1 QGAWLGAGEPWEPLLD [chain 1 P8G]: the screen value was 0.000266 average fractional NGS count over selection days 2 and 3 (reads of this peptide / all reads for the bait, averaged over …. With chain 1 QGAWLGAYEPWEPLLD [chain 1 P8Y], the screen value is 0.000389 average fractional NGS count over selection days 2 and 3 (reads of this peptide / all reads for the bait, averaged over ….

As for chain 1 QGAWLGAAEPWEPLLD [chain 1 P8A], the screen value is 0.000677 average fractional NGS count over selection days 2 and 3 (reads of this peptide / all reads for the bait, averaged over …. As to chain 1 QGAWLGAWEPWEPLLD [chain 1 P8W], the screen value is 0.000478 average fractional NGS count over selection days 2 and 3 (reads of this peptide / all reads for the bait, averaged over …. On to chain 1 QGAWLGAQEPWEPLLD [chain 1 P8Q], for which the screen value was 0.000198 average fractional NGS count over selection days 2 and 3 (reads of this peptide / all reads for the bait, averaged over …. Consider chain 1 QGAWLGATEPWEPLLD [chain 1 P8T], for which the screen value was 0.001 average fractional NGS count over selection days 2 and 3 (reads of this peptide / all reads for the bait, averaged over …. With chain 1 QGAWLGALEPWEPLLD [chain 1 P8L], the screen value is 0.000953 average fractional NGS count over selection days 2 and 3 (reads of this peptide / all reads for the bait, averaged over …. On to chain 1 QGAWLGAPNPWEPLLD [chain 1 E9N], for which the screen value was 0.000953 average fractional NGS count over selection days 2 and 3 (reads of this peptide / all reads for the bait, averaged over …. Under chain 1 QGAWLGAPMPWEPLLD [chain 1 E9M] stands 0.00679 average fractional NGS count over selection days 2 and 3 (reads of this peptide / all reads for the bait, averaged over …; under chain 1 QGAWLGAPFPWEPLLD [chain 1 E9F], 0.000135 average fractional NGS count over selection days 2 and 3 (reads of this peptide / all reads for the bait, averaged over …. Regarding chain 1 QGAWLGAPSPWEPLLD [chain 1 E9S], the screen value is 0.00294 average fractional NGS count over selection days 2 and 3 (reads of this peptide / all reads for the bait, averaged over …. chain 1 QGAWLGAPPPWEPLLD [chain 1 E9P]: the screen value is 0.00127 average fractional NGS count over selection days 2 and 3 (reads of this peptide / all reads for the bait, averaged over …. Turning to chain 1 QGAWLGAPQPWEPLLD [chain 1 E9Q], the screen value is 0.000696 average fractional NGS count over selection days 2 and 3 (reads of this peptide / all reads for the bait, averaged over …. As for chain 1 QGAWLGAPETWEPLLD [chain 1 P10T], the screen value is 0.00164 average fractional NGS count over selection days 2 and 3 (reads of this peptide / all reads for the bait, averaged over …. Consider chain 1 QGAWLGAPEGWEPLLD [chain 1 P10G], for which the screen value is 0.000535 average fractional NGS count over selection days 2 and 3 (reads of this peptide / all reads for the bait, averaged over …. In the case of chain 1 QGAWLGAPEQWEPLLD [chain 1 P10Q], the screen value is 0.000676 average fractional NGS count over selection days 2 and 3 (reads of this peptide / all reads for the bait, averaged over …. For the variant chain 1 QGAWLGAPEIWEPLLD [chain 1 P10I], the screen value was 0.00391 average fractional NGS count over selection days 2 and 3 (reads of this peptide / all reads for the bait, averaged over …. In the case of chain 1 QGAWLGAPEDWEPLLD [chain 1 P10D], the screen value is 0.00968 average fractional NGS count over selection days 2 and 3 (reads of this peptide / all reads for the bait, averaged over …. On to chain 1 QGAWLGAPEAWEPLLD [chain 1 P10A], for which the screen value was 0.000635 average fractional NGS count over selection days 2 and 3 (reads of this peptide / all reads for the bait, averaged over …. chain 1 QGAWLGAPEVWEPLLD [chain 1 P10V]: the screen value was 0.00245 average fractional NGS count over selection days 2 and 3 (reads of this peptide / all reads for the bait, averaged over …. Under chain 1 QGAWLGAPEEWEPLLD [chain 1 P10E] stands 0.00264 average fractional NGS count over selection days 2 and 3 (reads of this peptide / all reads for the bait, averaged over …; under chain 1 QGIWLGAPEPWEPLLD [chain 1 A3I], 0.00198 average fractional NGS count over selection days 2 and 3 (reads of this peptide / all reads for the bait, averaged over …; under chain 1 QGTWLGAPEPWEPLLD [chain 1 A3T], 0.00113 average fractional NGS count over selection days 2 and 3 (reads of this peptide / all reads for the bait, averaged over …. For chain 1 QGWWLGAPEPWEPLLD [chain 1 A3W], the screen value was 0.000101 average fractional NGS count over selection days 2 and 3 (reads of this peptide / all reads for the bait, averaged over …. Take chain 1 QGQWLGAPEPWEPLLD [chain 1 A3Q]: the screen value was 0.000713 average fractional NGS count over selection days 2 and 3 (reads of this peptide / all reads for the bait, averaged over ….
